Paper PMC8455074 (Cancer cell, 2020)
Ends that are not written are not given here. * marks the point of attachment. Biotin = O=C1N[C@H]2[C@H](CS[C@H]2CCCCC(=O)*)N1

T1: His-tagged CXorf67, recombinant (human, UniProt Q86X51 1-503)
T1 sequence (looked up): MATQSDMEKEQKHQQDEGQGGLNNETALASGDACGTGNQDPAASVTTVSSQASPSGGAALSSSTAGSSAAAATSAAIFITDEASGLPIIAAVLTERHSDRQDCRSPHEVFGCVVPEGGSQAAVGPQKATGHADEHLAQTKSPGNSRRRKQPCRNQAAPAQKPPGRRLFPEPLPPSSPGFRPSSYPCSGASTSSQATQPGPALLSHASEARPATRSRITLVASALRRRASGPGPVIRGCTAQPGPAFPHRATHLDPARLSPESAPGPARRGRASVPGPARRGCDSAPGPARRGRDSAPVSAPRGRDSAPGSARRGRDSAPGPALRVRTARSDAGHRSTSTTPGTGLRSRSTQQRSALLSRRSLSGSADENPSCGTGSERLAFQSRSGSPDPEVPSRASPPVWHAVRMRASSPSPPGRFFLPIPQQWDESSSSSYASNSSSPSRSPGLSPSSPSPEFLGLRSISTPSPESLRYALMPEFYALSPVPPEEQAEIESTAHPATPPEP

B1: GST-tagged PALB2 WD40 domain (domain or fragment, UniProt Q86YC2 853-1186, looked up)
chain: GNLQLVSELKNPSGSCSVDVSAMFWERAGCKEPCIITACEDVVSLWKALDAWQWEKLYTWHFAEVPVLQIVPVPDVYNLVCVALGNLEIREIRALFCSSDDESEKQVLLKSGNIKAVLGLTKRRLVSSSGTLSDQQVEVMTFAEDGGGKENQFLMPPEETILTFAEVQGMQEALLGTTIMNNIVIWNLKTGQLLKKMHIDDSYQASVCHKAYSEMGLLFIVLSHPCAKESESLRSPVFQLIVINPKTTLSVGVMLYCLPPGQAGRFLEGDVKDHCAAAILTSGTIAIWDLLLGQCTALLPPVSDQHWSFVKWSGTDSHLLAGQKDGNIFVYHYS

Legend:
[1] = target: B1; test: pull-down
[2] = target: T1, His-tagged CXorf67, recombinant; test: pull-down

Biotin-GGPIPQQWDESSSSS [biotinylated WT C67 (420-432) peptide]: binds [1].

B1: binds [2].
